In the supplement of paper PMC10567573:
± gives the standard deviation.

Assay: protein stability index of a GFP-peptide fusion (GPS, HEK-293T) (PSI 1-6); higher = more stable
[1] = treatment: DMSO, c terminus: a fixed tail appended
[2] = treatment: MLN4924 1 uM, 8 h, c terminus: a fixed tail appended
[3] = treatment: DMSO, c terminus: native
[4] = treatment: MLN4924 1 uM, 8 h, c terminus: native
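Note: 24-mer peptide tiles fused after GFP, lentivirally expressed, FACS-sorted into six equal bins by GFP/DsRed ratio, decoded by Illumina sequencing, PSI is the read-weighted mean bin number.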

Sequence | protein stability index [1] | protein stability index [2] | protein stability index [3] | protein stability index [4]
KVVKGHRPELPPVCRARPRACSHL [RIPK4] | 3.19 ± 0.36 | 3.04 ± 0.46 |  | 
KYDYLMTLHGVVNESTVCLMSYER [TENT5D] | 2.38 ± 0.34 | 2.36 ± 0.22 |  | 
KYNHAACFGLQPGCLLPDGSRMMA [NLN] | 2.59 ± 0.27 | 2.55 ± 0.33 |  | 
KYRSYEEFKADAQLLLHNTVIFYG [ZMYND11] | 2 ± 0.46 | 2.07 ± 0.33 |  | 
LAAVTPHDFIEHILRKLPQQREKL [CCND2] | 2.53 ± 0.17 | 2.74 ± 0.23 |  | 
LAFPLKHPDSWRAYPFYWAWLPQA [PI4K2A] | 2.42 ± 0.65 | 2.48 ± 0.84 |  | 
LAICRPLTYSTRMSQTVQRMLVAA [OR3A1] | 2.49 ± 0.17 | 2.54 ± 0.14 |  | 
LAYLPFKLEKSIDSYYRLVIHRAL [PCDHGA10] | 2.25 ± 0.62 | 2.23 ± 0.81 |  | 
LCEPDPVHFSEAIEKFIREPSLKA [ALG2] | 3.81 ± 0.19 | 3.91 ± 0.19 |  | 
LCHCGKAFSHKSMRDRHVNMHLNL [ZBTB22] | 2.21 ± 0.45 | 2.32 ± 0.14 |  | 
LCIHTGRELRCKVFPIKHYQDKIR [TRIB1] | 2.27 ± 0.52 | 2.18 ± 0.18 |  | 
LCSVGASKAVFLWNMDKYTMIRKL [WSB1] | 2.34 ± 0.4 | 2.17 ± 0.31 |  | 
LDDIIRHDFFLQGFTPDRLSSSCC [PLK2] | 2.48 ± 0.043 | 2.64 ± 0.3 |  | 
LDFTHPKARDWFQGHLRRLRSRYS [MYORG] | 2.79 ± 0.39 | 2.97 ± 0.074 |  | 
LDPWFAGSSNVGINRWRFLLQCLE [CRY1] | 2.5 ± 0.36 | 2.54 ± 0.23 |  | 
LDSRSTDRVLQWERIDCQGIPPSS [KLHDC2] | 4.09 ± 0.29 | 3.98 ± 0.24 |  | 
LEDTCKTIEECCRKQKQELCEKFD [TRIM55] | 4.86 ± 0.094 | 4.74 ± 0.25 |  | 
LEEAKQPKNDNVVIPECAHGGLYK [SMOC2] | 5.31 ± 0.14 | 5.146 ± 0.035 |  | 
LEEEEEEEDLVLTCEDDEDEELGG [ZBTB22] | 5.57 ± 0.2 | 5.56 ± 0.18 |  | 
LEGAQAPLAVEEDASSSTSTSSSF [MAGEA10] | 5.66 ± 0.14 | 5.55 ± 0.2 |  | 
LEKEEEKDLVMYSKCQRLFRSPSM [CDC25B] | 3.69 ± 0.39 | 3.57 ± 0.18 |  | 
LENELDLKLVSFSKLCTSYSHSST [GOSR1] | 2.98 ± 0.13 | 2.93 ± 0.16 |  | 
LENRIQREIALAKKHGTQNKRAAL [CHMP4C] | 4.09 ± 0.26 | 4.04 ± 0.25 |  | 

Sequence | protein stability index [1] | protein stability index [2] | protein stability index [3] | protein stability index [4]
LEQRRQQASEREAPSIEQRLQEVR [FCHSD1] | 5.37 ± 0.32 | 5.26 ± 0.12 |  | 
LFKAHFRGEVLPEEITEESLEESV [INTS3] | 4.9 ± 0.091 | 4.962 ± 0.037 |  | 
LFNILAKFNGITEKEYKTYKENFL [USP39] | 2.16 ± 0.43 | 2.5 ± 0.25 |  | 
LFSLKESPEKFQIEANFPRRVLPC [FAF2] | 2.61 ± 0.3 | 2.84 ± 0.24 |  | 
LGKITFIRNSRPLVKKVEEDEAGG [UFD1] | 3.99 ± 0.34 | 3.94 ± 0.25 |  | 
LGLAGRCLTLTPRPATEAELLTCH [HDAC6] | 2.86 ± 0.26 | 2.7 ± 0.4 |  | 
LGLVARQEDSGLRDHSVRVLISNH [AUP1] | 3 ± 0.15 | 3.01 ± 0.36 |  | 
LGPGALHFDLRDDDDAEEEGPKRE [TCF25] | 5.17 ± 0.29 | 5.54 ± 0.13 |  | 
LGVGLLTFASLETVGIYFGLVYRI [TMEM40] | 3.17 ± 0.25 | 3.29 ± 0.22 |  | 
LHQTVERIHVGKKYGDIPRGIFVV [LSM1] | 2.76 ± 0.59 | 2.59 ± 0.63 |  | 
LILFAWGTLLFYIGGHLVRDNDHP [FUT8] | 2.95 ± 0.19 | 3.36 ± 0.47 |  | 
LIQDSPDSSTSPKGKQPTSAENSV [NANOGP8] | 5.23 ± 0.11 | 5.17 ± 0.17 |  | 
LIVGAPIWFRVPYSIISLLLKDKV [PTPN9] | 2.59 ± 0.37 | 2.75 ± 0.85 |  | 
LKGAFPARLKKVLIVGAPIWFRVP [PTPN9] | 2.96 ± 0.7 | 2.84 ± 0.5 |  | 
LKGTLVSTLKEVKPTVFIGVPQIW [ACSBG2] | 2.65 ± 0.2 | 3.5 ± 0.61 |  | 
LKHWRRAMELRHQGGEYLPKPEPP [FEM1A] | 3.08 ± 0.53 | 3.16 ± 0.41 |  | 
LLARPGTGEHREFKLDKKYQRPQD [FBF1] | 3.95 ± 0.41 | 4.16 ± 0.3 |  | 
LLDGLARRVGILGEELADVGGVLR [SCARA5] | 2.64 ± 0.2 | 2.72 ± 0.4 |  | 
LLEGTPSSASEGDEDLRRQMQDDE [PALM] | 5.45 ± 0.25 | 5.49 ± 0.28 |  | 
LLGFNLTFVFLASLLVLIEPVAAG [CLCN6] | 3.45 ± 0.23 | 3.14 ± 0.36 |  | 
LLGLKAFLGLFFIVRFLESNWFVW [FADS1] | 2.9 ± 0.47 | 2.31 ± 0.43 |  | 
LLLLDLLALYTPVGAAGSARQELL [ANKRD9] | 2.89 ± 0.38 | 2.88 ± 0.27 |  | 
LLSLNSLLPESGIVADIELENVLD [TFE3] | 3.3 ± 0.49 | 3.3 ± 0.19 |  | 

Sequence | protein stability index [1] | protein stability index [2] | protein stability index [3] | protein stability index [4]
LLSSVHVLDLEARGYIKPHVDSIK [ALKBH7] | 2.97 ± 0.22 | 3.19 ± 0.33 |  | 
LLVLCEDHRGRMVKHQCCPGCGYF [EHMT1] | 2.36 ± 0.087 | 2.27 ± 0.36 |  | 
LMRHMATHSPQKSHQCAHCEKTFN [PLAGL1] | 3.24 ± 0.3 | 3.2 ± 0.28 |  | 
LNAEAGHLDPGFLASDKTSAGNAP [C18orf25] | 5.07 ± 0.14 | 4.98 ± 0.14 |  | 
LNGASVLPHKSIGESVPEPRIIM [GMPPB] |  |  | 3.65 ± 0.17 | 3.71 ± 0.14
LNGENSDIKICALGEEWSLHKIYL [GMCL1] | 2.14 ± 0.32 | 1.94 ± 0.41 |  | 
LNRALSNLSSRWKNWWVRGILTLA [CDS2] | 3.17 ± 0.31 | 3.1 ± 0.49 |  | 
LPCSSYIDSYDPSTGEVYCRVPNS [ALDH8A1] | 2.65 ± 0.22 | 2.88 ± 0.24 |  | 
LPILTWPVLQSRTGLVYDQNMMNH [HDAC6] | 2.25 ± 0.23 | 2.3 ± 0.33 |  | 
LPIVAIENILSFMSYDEISQLRLV [FBXO28] | 2.94 ± 0.5 | 2.81 ± 0.43 |  | 
LPPEKGREVAKELGLPYYETSVFD [RHOBTB1] | 3.65 ± 0.18 | 3.8 ± 0.24 |  | 
LPQTPHLEEDLKEVLRSEAGIELI [MYBL2] | 4.2 ± 0.44 | 4.37 ± 0.17 |  | 
LPRRDFQRQVWLLFEYPESSGPAR [KCNA3] | 2.32 ± 0.26 | 2.71 ± 0.58 |  | 
LPVGTQLLTVTATDRDEGANGEVT [PCDHGA10] | 5.32 ± 0.37 | 5.4 ± 0.23 |  | 
LQAPVPPDSVPSLQNMGLLLDKLA [PBXIP1] | 3.11 ± 0.44 | 2.86 ± 0.46 |  | 
LQDVRVNQSRCEMKTFVSPEAISP [TRIM15] | 4.01 ± 0.17 | 4.09 ± 0.29 |  | 
LQEKSQCALEEYVRSQYPNQPTRF [NR2F2] | 3.16 ± 0.25 | 3.24 ± 0.24 |  | 
LQEPGVFSPTPPQQFQPAGTDQVC [FCHSD1] | 4.25 ± 0.16 | 4.45 ± 0.27 |  | 
LQEQHLSSPQGVQLDIASQSLDQE [BCL2L13] | 5.38 ± 0.28 | 5.56 ± 0.21 |  | 
LQEVLSSDENGGTYVSPPGNEEEE [DDIT3] | 5.63 ± 0.27 | 5.42 ± 0.3 |  | 
LQGSLFGLAGLLPASYTAPIMSGQ [SLC29A1] | 2.44 ± 0.28 | 2.27 ± 0.3 |  | 
LQKLLSGRSREELDELTGEVAGGG [FEM1A] | 4.64 ± 0.19 | 4.71 ± 0.2 |  | 
LQLRYSLRILIGDPPHHDHHDEFC [BEX5] | 2.74 ± 0.54 | 2.48 ± 0.45 |  | 

Sequence | protein stability index [1] | protein stability index [2] | protein stability index [3] | protein stability index [4]
LQMEMKEDDVSFLMKHKSRKRRLF [TRIM35] | 3.35 ± 0.35 | 3.54 ± 0.16 |  | 
LQPEQQLNIYKTLKTHLIEKGILQ [CDS1] | 2.42 ± 0.14 | 2.58 ± 0.4 |  | 
LQTLLYFLSDVTAAVKENQMTPTN [DLC1] | 2.04 ± 0.52 | 2.12 ± 0.83 |  | 
LRAIDFGTDEEEEEFIEEEDQEEE [TRIM63] | 5.63 ± 0.15 | 5.65 ± 0.13 |  | 
LRAQVPFEQILSLPELKANPFKER [CIB1] | 3.17 ± 0.29 | 3.1 ± 0.42 |  | 
LRDVNHEKAMAEWVKQQAEREAEK [SDE2] | 5.19 ± 0.12 | 5.42 ± 0.23 |  | 
LRPRPASSISLPIGHLGCISLLS [DMRTC1] |  |  | 2.47 ± 0.41 | 2.43 ± 0.33
LSDTELTTLLRRYNIPHGPVVGST [EMD] | 2.74 ± 0.38 | 2.69 ± 0.26 |  | 
LSLIARFSPIAIDGMSGLAGVGLS [ELAVL3] | 2.7 ± 0.73 | 2.48 ± 0.42 |  | 
LSMDEKVELYRIKFKESFAEMNRG [COX4I1] | 2.9 ± 0.2 | 2.97 ± 0.21 |  | 
LSMERYALVFGVNTFIALALQTLL [SLC19A2] | 3.04 ± 0.22 | 2.93 ± 0.53 |  | 
LSRQEFLGMVGLFGTIISGIQLLI [SLC35F2] | 2.28 ± 0.25 | 2.09 ± 0.33 |  | 
LSTPKPLVDFCNKPILLHQVEALA [GMPPB] | 2.54 ± 0.3 | 2.52 ± 0.41 |  | 
LTCDSAQKCHSIGETDEVTKTEDR [ZSCAN9] | 5.27 ± 0.34 | 5.59 ± 0.13 |  | 
LTSDLYAPMVAGALARLGTVTVIS [SLC25A39] | 2.92 ± 0.4 | 2.67 ± 0.69 |  | 
LVCTADGDIHLSPEEPAASTDPNI [TAF7L] | 4.85 ± 0.2 | 4.89 ± 0.22 |  | 
LVEELSPASEKKPVPPSEGKSRLS [BCL2L13] | 5.32 ± 0.31 | 5.46 ± 0.15 |  | 
LVKDNPQRSYFLRIFDIKDGKLLW [WASL] | 1.99 ± 0.28 | 2.05 ± 0.36 |  | 
LVLRRQLKNKCCPPPCKFGEGKLS [C22orf31] | 2.21 ± 0.31 | 2.52 ± 0.34 |  | 
LVMEGTDDGRLLEYDTVTREVKVL [APMAP] | 3.5 ± 0.21 | 3.58 ± 0.37 |  | 
